Measurements as given in patent US20140221622A1.

Molecular target: EGFR on U87MG.de2-7 cells (UniProt P00533)
Experiment: flow cytometry on U87MG.de2-7 cells, Alexa Fluor 488 anti-human IgG Fc

EC50: 9 nM
B1: DB001 DVD-Ig (CD3 and EGFR) (bispecific antibody)
VH: QVQLQESGPGLVKPSQTLSLTCTVSGYSISSDFAWNWIRQPPGKGLEWMGYISYSGNTRYQPSLKSRITISRDTSKNQFFLKLNSVTAADTATYYCVTAGRGFPYWGQGTLVTVSSASTKGPEVQLVESGGGLVQPGGSLRLSCAASGFTFSTYAMNWVRQAPGKGLEWVGRIRSKYNNYATYYADSVKDRFTISRDDSKNTAYLQMNSLRAEDTAVYYCTRHGNFGNSYVSWFAYWGQGTLVTVSS
VL: DIQMTQSPSSMSVSVGDRVTITCHSSQDINSNIGWLQQKPGKSFKGLIYHGTNLDDGVPSRFSGSGSGTDYTLTISSLQPEDFATYYCVQYAQFPWTFGGGTKLEIKTVAAPSVFIFPPDAQVTQSPSSLSASVGDRVTITCRSSTGAVTTSNYANWVQEKPGKLFKGLIGGTNKRAPGVPSRFSGSGSGTDATLTISSLQPEDFATYFCALWYSNLWVFGGGTKVEIKR
